Results as given in paper PMC9213253 (The Journal of Biological Chemistry, 2022).

Experiments:
Dat (ACIAD1210) = Dat (ACIAD1210) (Acinetobacter baylyi, UniProt Q6FCX2); settings: 10 mM DAP; 5 mM 2-oxoglutarate; 200 μM PLP; 200 μM NAD+; pH 9.0; 25 °C
AstC (ACIAD1284) = AstC (ACIAD1284) (Acinetobacter baylyi, UniProt Q6FCQ2); settings: 10 mM DAP; 5 mM 2-oxoglutarate; 200 μM PLP; 200 μM NAD+; pH 9.0; 25 °C
purified protein [1] = substrate: NC(=O)c1ccc[n+]([C@@H]2O[C@H](COP(=O)(O)OP(=O)(O)OC[C@H]3O[C@@H](n4cnc5c(N)ncnc54)[C@H](O)[C@@H]3O)[C@@H](O)[C@H]2O)c1; assay: purified protein; settings: pH 9.0, 25 °C, varied: cofactor
purified protein [2] = substrate: NCCC=O; assay: purified protein; settings: pH 9.0, 25 °C
purified protein [3] = substrate: NC(=O)c1ccc[n+]([C@@H]2O[C@H](COP(=O)(O)OP(=O)(O)OC[C@H]3O[C@@H](n4cnc5c(N)ncnc54)[C@H](OP(=O)(O)O)[C@@H]3O)[C@@H](O)[C@H]2O)c1; assay: purified protein; settings: pH 9.0, 25 °C, varied: cofactor
purified protein [4] = substrate: O=C(O)CCC(=O)C(=O)O; assay: purified protein; settings: 4 mM GABA, 200 μM PLP, 5 mM NAD+, pH 9.0, 25 °C
purified protein [5] = substrate: NCCCN; assay: purified protein; settings: 200 μM PLP
purified protein [6] = substrate: NCCCC(=O)O; assay: purified protein; settings: 500 μM 2-oxoglutarate, 200 μM PLP, 5 mM NAD+, pH 9.0, 25 °C
purified protein [7] = substrate: NCC[C@H](N)C(=O)O; assay: purified protein; assay type: biochemical, Acinetobacter baylyi; settings: 100 mM Tris-HCl pH 8.5, 200 μM PLP, 2.5 mM CaCl2, 25 °C
[8] = 500 μM 2-oxoglutarate, 5 mM NAD+, pH 9.0, 25 °C
[9] = 1 mM NAD+, BetB, 2.5 mM CaCl2, pH 9.0, 25 °C

Chain of AstC (ACIAD1284) (Q6FCQ2 1-403): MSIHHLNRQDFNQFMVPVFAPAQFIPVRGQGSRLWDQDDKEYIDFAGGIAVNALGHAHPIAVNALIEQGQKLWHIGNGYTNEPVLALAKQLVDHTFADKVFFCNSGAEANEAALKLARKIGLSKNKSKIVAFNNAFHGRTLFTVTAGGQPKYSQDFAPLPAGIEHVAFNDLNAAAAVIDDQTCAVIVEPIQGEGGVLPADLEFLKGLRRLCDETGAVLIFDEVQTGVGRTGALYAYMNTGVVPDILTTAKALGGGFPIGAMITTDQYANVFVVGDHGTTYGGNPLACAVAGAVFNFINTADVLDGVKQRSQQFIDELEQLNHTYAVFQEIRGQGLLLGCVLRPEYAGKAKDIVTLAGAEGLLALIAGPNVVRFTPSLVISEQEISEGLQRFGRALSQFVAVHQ
Chain of Dat (ACIAD1210) (Q6FCX2 1-456): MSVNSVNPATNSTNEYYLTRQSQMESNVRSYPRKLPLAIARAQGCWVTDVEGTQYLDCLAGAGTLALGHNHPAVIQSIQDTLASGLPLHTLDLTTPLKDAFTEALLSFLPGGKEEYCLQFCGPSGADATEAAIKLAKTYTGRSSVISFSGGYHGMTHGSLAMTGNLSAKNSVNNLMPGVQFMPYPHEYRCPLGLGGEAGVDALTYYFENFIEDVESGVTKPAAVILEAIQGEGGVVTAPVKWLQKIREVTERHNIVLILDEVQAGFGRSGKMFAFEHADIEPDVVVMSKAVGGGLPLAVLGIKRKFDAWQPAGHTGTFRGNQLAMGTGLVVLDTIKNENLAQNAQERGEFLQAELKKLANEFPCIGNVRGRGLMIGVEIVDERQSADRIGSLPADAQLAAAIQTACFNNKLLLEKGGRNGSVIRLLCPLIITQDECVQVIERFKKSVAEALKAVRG

NCCCN [DAP]
BetB-coupled assay, NADH at 340 nm (aminotransferase) (Dat (ACIAD1210)): activity of AstC and Dat was too low to determine their kinetic parameters | BetB-coupled assay, NADH at 340 nm (aminotransferase) (AstC (ACIAD1284)): activity of AstC and Dat was too low to determine their kinetic parameters

B1: AdhA (ACIAD3339) (Acinetobacter baylyi ADP1) (protein)
chain: MGSLMKAAVVTAFNQPLEIKDVEIPKVTSGKVLVKMIATGVCHTDLHAMHGDWPIKPSLPFIPGHEGVGEVVEIGEGITHLKIGDTVGVPWLYSACGHCDHCYAGWETLCKQQQNSGYSVNGSFAEYCLADGEYVGVIPEGVDLLEIAPILCAGVTVYKGLKMTEAKTGDWVAISGIGGLGHVAVQYAKTMGFNVVAIDVDDSKLELAKQLGADVGINALKVDVKEEVLKATGEGCHGVLVTAVSPKAFEQAVSVVRRGGTMVLNGLPPGKFDLSIFDMVLDGITVRGSIVGTRLDLKEALDIAARGKVKAHISVEPLENINDIFERMEQGKIDGRIVIDLKL
Km (purified protein [1]; 2 mM 3AP): 1803 ± 305 µM | kcat/Km (purified protein [1]; 2 mM 3AP): 520 M⁻¹ s⁻¹ | Km (purified protein [2]; 9 mM NAD+): 141 ± 28 µM

B2: AcoD (ACIAD2018) (Acinetobacter baylyi ADP1) (protein)
chain: MRYIDPNQPGSKVQFKAQYENFIGGQWVPPVKGEYFGNSSPVDGKVFTQIPRSSVEDIELALDAAHKAKADWNKASPTVRSNVLLKIADRLEENLELLAVAETWENGKPIRETLAADIPLAIDHFRYFAGCIRAQEGGISEIDEDTIAYHFHEPLGVVGQIIPWNFPILMAAWKLAPALAAGNCIVLKPAEQTPSSILVLAELIQDLLPPGVLNIVNGYGAEVGRPLATNPRISKIAFTGSTKVGQMIMQYATENIIPVTLELGGKSPNIFFEDILDKEDDYLEKTLEGFAMFALNQGEVCTCPSRALVQESIADKFLEMAVERVKRIKTGHPLDTETMIGAQASKQQFDKILGCIDTGRNEGAQLLTGGDARHDVDGGFYIEPTIFKGNNSMKIFQEEIFGPVLSVTTFKDFDDAMRIANDTIYGLGAGVWSRSAHTSYRAGRAIEAGRVWTNCYHLYPAHAAFGGYKQSGIGRENHRMMLDHYQQTKNLLVSYSTKPMGFF
Km (purified protein [1]; 20 mM 3AP): 124 ± 49 µM | kcat/Km (purified protein [1]; 20 mM 3AP): 13000 M⁻¹ s⁻¹ | Km (purified protein [2]; 2 mM NAD+): 3559 ± 755 µM | kcat (purified protein [2]; 2 mM NAD+): 1.55 ± 0.35 s⁻¹ | kcat/Km (purified protein [2]; 2 mM NAD+): 440 M⁻¹ s⁻¹

B3: GabD-like (ACIAD0960) (Acinetobacter baylyi ADP1) (protein)
chain: MAYATVNPYTGETLKEFPFATEQEVKAAIDAGYTAFTTWKDSSFATRAEVLNKAAKILRDKTDYYAKFLTLEMGKLFKEAQGEVEICAQIFEYYAKHAEELLAPTKLSTANKEINATIYYEPQGIVMAVEPWNFPFYQIARILSAQLAAGNTVILKHASIVPQSANAFEQLLLDAGLPQGAFKNLYMQHEHIPLVLNDHRVCGVALTGSEGAGAEVAAHAGKALKKSTLELGGSDAFIVLKDADLEKTAQLAVSGRHSNAGQVCTASKRFIVVDEVYDQFVELYKQGVAKLKAGDPMDPDTTLAPLCSQDAADQLKKQVEKAKAAGATVEAIGAPVPEQGAFFQPLLMTDIQEDNEARYWEFFGPVTQLYRAKDEADAIRIANDSPFGLGGSVYTADHARGVEVAKQIHTGMVYINHPTTSQADLPFGGVGRSGYGRELIDLGLKEFVNHKLIAITDIDAKL
Km (purified protein [1]; 15 mM 3AP): 4507 ± 363 µM | kcat (purified protein [1]; 15 mM 3AP): 1.68 ± 0.04 s⁻¹ | kcat/Km (purified protein [1]; 15 mM 3AP): 370 M⁻¹ s⁻¹ | Km (purified protein [3]; 15 mM 3AP): 3718 ± 1138 µM | kcat/Km (purified protein [3]; 15 mM 3AP): 1000 M⁻¹ s⁻¹

B4: GabT (ACIAD3446) (Acinetobacter baylyi ADP1) (protein)
chain: MDTKHSALNQRKQQATPRGVGVMCQWYADKAENATIWDAEGNTYIDFAGGIAVLNTGHRHPKVLAAVKAQLERFTHTAYQVTPYESYVALAERINELAPIAGPAKTTFFTTGAEAVENAVKIARCYTGRQGIITFGNGFHGRSFMTMAMTGKTAPYKRDFGLMPGGVFHARYPVESRGISVDDALESIENIFSEDVAPHDVAAIVLEPVQGEGGFNVVPADFLKRLRALCDKHGILLVADEVQTGFARTGKLYAMDHYETKADLITMAKSLGGGFPISGVVGRAEVMDAPNPGGLGGTYAGNPVAVAAAHAVIDAIQEEKLCERANELGAELVHVLKGLQQSTDQVITDIRALGSMVAAEFETAEQAKAVQNYAMQNGLLLLTCGKYGNVIRFLYPLTIPVEQFRSGLDILKQGVASLATDHTTQAIG
Km (purified protein [4]): 58 ± 7 µM | kcat/Km (purified protein [4]): 8300 M⁻¹ s⁻¹ | Km (purified protein [5]; [8]): 4356 ± 1014 µM | kcat (purified protein [5]; [8]): 0.22 s⁻¹ | kcat/Km (purified protein [5]; [8]): 51 M⁻¹ s⁻¹ | Km (purified protein [6]): 399 ± 40 µM | kcat (purified protein [6]): 0.48 ± 0.021 s⁻¹ | kcat/Km (purified protein [6]): 1200 M⁻¹ s⁻¹

B5: Ddc (ACIAD1211) (Acinetobacter baylyi ADP1) (protein)
chain: MVDFAEHRKALLCNDAASIAEYQSAMDEAVKAVAAWLQNDKMYTGGSIKELRSAIAFNPSKEGLGLHQSLGRMVELFLNKSLKVHHPYSLAHLHCPTMVTSQIAEVLINATNQSMDSWDQSPAGSLMEVQLIDWLRQKVGYGVGQAGVFTSGGTQSNLMGVLLARDWAIAKNFTDENGQPWSVQRDGIPAEAMRNIKVICSENAHFSVQKNMAMMGMGFQSVVTVPVNENAQMDVDALEKTMSHLQSEGKIVACVVATAGTTDAGAIDPLKKIREITTKYGAWMHIDAAWGGALILSNDYRDMLDGIELSDSITLDFHKHYFQSISCGAFLLKDEANYRFMHYEAEYLNSAYDEEHGVPNLVSKSLQTTRRFDALKLWMTVEALGEELYGSMIDHGVKLTREVADYIKATEGLELLVEPQFASVLFRVVPDGYPVELIDTLNQNVADELFARGDANIGVTKVGAVQSLKMTTLSPVATLENVKGLLAMVLAESDRIKDSIAAGTYVPAID
Km (purified protein [5]; [9]): 710 ± 113 µM | kcat (purified protein [5]; [9]): 0.009 s⁻¹ | kcat/Km (purified protein [5]; [9]): 13 M⁻¹ s⁻¹ | Km (purified protein [7]): 1585 ± 257 µM | kcat (purified protein [7]): 12.1 ± 1.1 s⁻¹ | kcat/Km (purified protein [7]): 7600 M⁻¹ s⁻¹

B6: BetB (ACIAD1009) (Acinetobacter baylyi ADP1) (protein)
chain: MSDVKLHRLYIHGQYTDATSGKTFDSINPATGEVIATIQQASQTDIEAAVKSAAEGQKVWAAKTAVERSRILRRAVDILRERNDELAQLETLDTGKAFSETSTVDIVTGADVLEYYAGLATAIQGEQVPLRESSFFYTRREPLGVVAGIGAWNYPIQIALWKSAPALAAGNAMIFKPSEVTPLTAFKLAEIYSEAGLPAGVFNVVQGAGREIGQWLTEHAVIEKISFTGGVETGKKVMASAAGSTLKEVTMELGGKSPLIICEDANLDRAADIAVMANFFSSGQVCTNGTRVFIPQRLKAAFEQAVVERVKRIRMGDPQHTDTNFGPLVSFPHMEKVLSYIESGKQQGAKVLIGGERATTGLLAQGAYVQPTVFTDCHDDMKIVQEEIFGPVMSILTYDTIEEAIERANNTNFGLAAGVVTQNISQAHQIIHQLEAGICWINTWGESPAEMPVGGYKESGVGRENGISTLNHYTRTKSIQVELGDYQSVF
Km (purified protein [1]; 2.5 mM 3AP): 20 ± 4 µM | kcat/Km (purified protein [1]; 2.5 mM 3AP): 74000 M⁻¹ s⁻¹ | Km (purified protein [2]; 2 mM NAD+): 82 ± 17 µM | kcat (purified protein [2]; 2 mM NAD+): 1.48 ± 0.16 s⁻¹ | kcat/Km (purified protein [2]; 2 mM NAD+): 18000 M⁻¹ s⁻¹ | Km (purified protein [3]; 2.5 mM 3AP): 339 ± 67 µM | kcat (purified protein [3]; 2.5 mM 3AP): 2.43 ± 0.12 s⁻¹ | kcat/Km (purified protein [3]; 2.5 mM 3AP): 7200 M⁻¹ s⁻¹
